± gives the uncertainty stated by the source.
Test system: HEK293T
Experiment: plasma membrane surface immunostaining intensity (anti-HA, deep receptor scanning) (arbitrary fluorescence units); higher = higher plasma membrane expression

Row | Sequence | plasma membrane surface immunostaining intensity (GPCR class: A) | plasma membrane surface immunostaining intensity (GPCR class: A (Olfactory)) | further results
1 | MAANVSGAKSCPANFLAAADDKLSGFQGDFLWPILVVEFLVAVASNGLALYRFSIRKQRPWHPAVVFSVQLAVSDLLCALTLPPLAAYLYPPKHWRYGEAACRLERFLFTCNLLGSVIFITCISLNRYLGIVHPFFARSHLRPKHAWAVSAAGWVLAALLAMPTLSFSHLKRPQQGAGNCSVARPEACIKCLGTADHGLAAYRAYSLVLAGLGCGLPLLLTLAAYGALGRAVLRSPGMTVAEKLRVAALVASGVALYASSYVPYHIMRVLNVDARRRWSTRCPSFADIAQATAALELGPYVGYQVMRGLMPLAFCVHPLLYMAAVPSLGCCCRHCPGYRDSWNPEDAKSTGQALPLNATAAPKPSEPQSRELSQ [P2RY11] | 4350 ± 520 |  | 
2 | MAATASPQPLATEDADSENSSFYYYDYLDEVAFMLCRKDAVVSFGKVFLPVFYSLIFVLGLSGNLLLLMVLLRYVPRRRMVEIYLLNLAISNLLFLVTLPFWGISVAWHWVFGSFLCKMVSTLYTINFYSGIFFISCMSLDKYLEIVHAQPYHRLRTRAKSLLLATIVWAVSLAVSIPDMVFVQTHENPKGVWNCHADFGGHGTIWKLFLRFQQNLLGFLLPLLAMIFFYSRIGCVLVRLRPAGQGRALKIAAALVVAFFVLWFPYNLTLFLHTLLDLQVFGNCEVSQHLDYALQVTESIAFLHCCFSPILYAFSSHRFRQYLKAFLAAVLGWHLAPGTAQASLSSCSESSILTAQEEMTGMNDLGERQSENYPNKEDVGNKSA [ACKR2] | 6400 ± 110 |  | 
3 | MADAQNISLDSPGSVGAVAVPVVFALIFLLGTVGNGLVLAVLLQPGPSAWQEPGSTTDLFILNLAVADLCFILCCVPFQATIYTLDAWLFGALVCKAVHLLIYLTMYASSFTLAAVSVDRYLAVRHPLRSRALRTPRNARAAVGLVWLLAALFSAPYLSYYGTVRYGALELCVPAWEDARRRALDVATFAAGYLLPVAVVSLAYGRTLRFLWAAVGPAGAAAAEARRRATGRAGRAMLAVAALYALCWGPHHALILCFWYGRFAFSPATYACRLASHCLAYANSCLNPLVYALASRHFRARFRRLWPCGRRRRHRARRALRRVRPASSGPPGCPGDARPSGRLLAGGGQGPEPREGPVHGGEAARGPE [GALR3] | 2680 ± 290 |  | 
4 | MAEENHTMKNEFILTGFTDHPELKTLLFVVFFAIYLITVVGNISLVALIFTHRRLHTPMYIFLGNLALVDSCCACAITPKMLENFFSENKRISLYECAVQFYFLCTVETADCFLLAAMAYDRYVAICNPLQYHIMMSKKLCIQMTTGAFIAGNLHSMIHVGLVFRLVFCGSNHINHFYCDILPLYRLSCVDPYINELVLFIFSGSVQVFTIGSVLISYLYILLTIFKMKSKEGRAKAFSTCASHFLSVSLFYGSLFFMYVRPNLLEEGDKDIPAAILFTIVVPLLNPFIYSLRNREVISVLRKILMKK [OR5K1] |  | 194 ± 62 | 
5 | MAEHDYHEDYGFSSFNDSSQEEHQDFLQFSKVFLPCMYLVVFVCGLVGNSLVLVISIFYHKLQSLTDVFLVNLPLADLVFVCTLPFWAYAGIHEWVFGQVMCKSLLGIYTINFYTSMLILTCITVDRFIVVVKATKAYNQQAKRMTWGKVTSLLIWVISLLVSLPQIIYGNVFNLDKLICGYHDEAISTVVLATQMTLGFFLPLLTMIVCYSVIIKTLLHAGGFQKHRSLKIIFLVMAVFLLTQMPFNLMKFIRSTHWEYYAMTSFHYTIMVTEAIAYLRACLNPVLYAFVSLKFRKNFWKLVKDIGCLPYLGVSHQWKSSEDNSKTFSASHNVEATSMFQL [CXCR6] | 967 ± 65 |  | 
6 | MAEMNLTLVTEFLLIAFTEYPEWALPLFLLFLFMYLITVLGNLEMIILILMDHQLHAPMYFLLSHLAFMDVCYSSITVPQMLAVLLEHGAALSYTRCAAQFFLFTFFGSIDCYLLALMAYDRYLAVCQPLLYVTILTQQARLSLVAGAYVAGLISALVRTVSAFTLSFCGTSEIDFIFCDLPPLLKLTCGESYTQEVLIIMFAIFVIPASMVVILVSYLFIIVAIMGIPAGSQAKTFSTCTSHLTAVSLFFGTLIFMYLRGNSDQSSEKNRVVSVLYTEVIPMLNPLIYSLRNKEVKEALRKILNRAKLS [OR9Q1] |  | 422 ± 160 | 
7 | MAERNYTVVTEFFLTAFTEHLQWRVPLFLIFLSFYLATMLGNTGMILLIRGDRRLHTPMYFFLSHLSLVDICYSSAIIPQMLAVLWEHGTTISQARCAAQFFLFTFFASIDCYLLAIMAYDRYTAVCQPLLYVTIITEKARWGLVTGAYVAGFFSAFVRTVTAFTLSFCGNNEINFIFCDLPPLLKLSCGDSYTQEVVIIVFALFVMPACILVILVSYLFIIVAILQIHSAGGRAKTFSTCASHLTAVALFFGTLIFMYLRDNTGQSSEGDRVVSVLYTVVTPMLNPLIYSLRNKEVKEATRKALSKSKPARRP [OR9Q2] |  | 188 ± 71 | 
8 | MAETSALPTGFGELEVLAVGMVLLVEALSGLSLNTLTIFSFCKTPELRTPCHLLVLSLALADSGISLNALVAATSSLLRRWPYGSDGCQAHGFQGFVTALASICSSAAIAWGRYHHYCTRSQLAWNSAVSLVLFVWLSSAFWAALPLLGWGHYDYEPLGTCCTLDYSKGDRNFTSFLFTMSFFNFAMPLFITITSYSLMEQKLGKSGHLQVNTTLPARTLLLGWGPYAILYLYAVIADVTSISPKLQMVPALIAKMVPTINAINYALGNEMVCRGIWQCLSPQKREKDRTK [RGR] | 125 ± 16 |  | 
9 | MAFLIILITCFVIILATSQPCQTPDDFVAATSPGHIIIGGLFAIHEKMLSSEDSPRRPQIQECVGFEISVFLQTLAMIHSIEMINNSTLLPGVKLGYEIYDTCTEVTVAMAATLRFLSKFNCSRETVEFKCDYSSYMPRVKAVIGSGYSEITMAVSRMLNLQLMPQVGYESTAEILSDKIRFPSFLRTVPSDFHQIKAMAHLIQKSGWNWIGIITTDDDYGRLALNTFIIQAEANNVCIAFKEVLPAFLSDNTIEVRINRTLKKIILEAQVNVIVVFLRQFHVFDLFNKAIEMNINKMWIASDNWSTATKITTIPNVKKIGKVVGFAFRRGNISSFHSFLQNLHLLPSDSHKLLHEYAMHLSACAYVKDTDLSQCIFNHSQRTLAYKANKAIERNFVMRNDFLWDYAEPGLIHSIQLAVFALGYAIRDLCQARDCQNPNAFQPWELLGVLKNVTFTDGWNSFHFDAHGDLNTGYDVVLWKEINGHMTVTKMAEYDLQNDVFIIPDQETKNEFRNLKQIQSKCSKECSPGQMKKTTRSQHICCYECQNCPENHYTNQTDMPHCLLCNNKTHWAPVRSTMCFEKEVEYLNWNDSLAILLLILSLLGIIFVLVVGIIFTRNLNTPVVKSSGGLRVCYVILLCHFLNFASTSFFIGEPQDFTCKTRQTMFGVSFTLCISCILTKSLKILLAFSFDPKLQKFLKCLYRPILIIFTCTGIQVVICTLWLIFAAPTVEVNVSLPRVIILECEEGSILAFGTMLGYIAILAFICFIFAFKGKYENYNEAKFITFGMLIYFIAWITFIPIYATTFGKYVPAVEIIVILISNYGILYCTFIPKCYVIICKQEINTKSAFLKMIYSYSSHSVSSIALSPASLDSMSGNVTMTNPSSSGKSATWQKSKDLQAQAFAHICRENATSVSKTLPRKRMSSI [GPRC6A] |  |  | plasma membrane surface immunostaining intensity (GPCR class: C): 158 ± 24
10 | MAGAPGPLRLALLLLGMVGRAGPRPQGATVSLWETVQKWREYRRQCQRSLTEDPPPATDLFCNRTFDEYACWPDGEPGSFVNVSCPWYLPWASSVPQGHVYRFCTAEGLWLQKDNSSLPWRDLSECEESKRGERSSPEEQLLFLYIIYTVGYALSFSALVIASAILLGFRHLHCTRNYIHLNLFASFILRALSVFIKDAALKWMYSTAAQQHQWDGLLSYQDSLSCRLVFLLMQYCVAANYYWLLVEGVYLYTLLAFSVLSEQWIFRLYVSIGWGVPLLFVVPWGIVKYLYEDEGCWTRNSNMNYWLIIRLPILFAIGVNFLIFVRVICIVVSKLKANLMCKTDIKCRLAKSTLTLIPLLGTHEVIFAFVMDEHARGTLRFIKLFTELSFTSFQGLMVAILYCFVNNEVQLEFRKSWERWRLEHLHIQRDSSMKPLKCPTSSLSSGATAGSSMYTATCQASCS [GLP1R] |  |  | plasma membrane surface immunostaining intensity (GPCR class: B): 560 ± 52
11 | MAGNNFTEVTVFILSGFANHPELQVSLFLMFLFIYLFTVLGNLGLITLIRMDSQLHTPMYFFLSNLAFIDIFYSSTVTPKALVNFQSNRRSISFVGCFVQMYFFVGLVCCECFLLGSMAYNRYIAICNPLLYSVVMSQKVSNWLGVMPYVIGFTSSLISVWVISSLAFCDSSINHFFCDTTALLALSCVDTFGTEMVSFVLAGFTLLSSLLIITVTYIIIISAILRIQSAAGRQKAFSTCASHLMAVTIFYGSLIFTYLQPDNTSSLTQAQVASVFYTIVIPMLNPLIYSLRNKDVKNALLRVIHRKLFP [OR8I2] |  | 189 ± 85 | 
